Test results reported in patent US20260258394A1, “PLANT ENZYMES WITH IMPROVED ACTIVITY” (MAX-PLANCK-GESELLSCHAFT ZUR FÖRDERUNG DER WISSENSCHAFTEN …, priority 2023, published 2026).

Experiments:
Assay in all cases: mass photometry of purified protein
[1] = target: T1, GCC M5 (M. extorquens) β-subunit L100S, Y143H, D407I, I450V, W502R mutations (Methylorubrum extorquens)
T1 construct: Engineered β-subunit (carboxyltransferase), forms the β6 core; also called S100S; β6 core of GCC M5
T1 chain: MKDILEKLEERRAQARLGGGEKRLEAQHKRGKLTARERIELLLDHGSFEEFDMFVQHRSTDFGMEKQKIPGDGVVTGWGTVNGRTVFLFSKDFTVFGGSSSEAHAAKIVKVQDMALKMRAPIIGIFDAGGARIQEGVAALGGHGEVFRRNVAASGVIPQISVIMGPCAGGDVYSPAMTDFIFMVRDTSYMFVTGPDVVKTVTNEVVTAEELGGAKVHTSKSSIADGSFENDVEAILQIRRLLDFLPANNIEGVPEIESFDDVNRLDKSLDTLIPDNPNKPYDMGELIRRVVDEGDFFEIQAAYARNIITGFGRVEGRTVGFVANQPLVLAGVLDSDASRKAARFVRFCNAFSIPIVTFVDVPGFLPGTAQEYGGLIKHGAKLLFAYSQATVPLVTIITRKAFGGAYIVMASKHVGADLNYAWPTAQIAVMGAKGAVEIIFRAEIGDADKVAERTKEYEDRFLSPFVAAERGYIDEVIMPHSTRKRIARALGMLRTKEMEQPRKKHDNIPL
Method: (§1) Mass photometry (MP) measurements were carried out on microscope coverslips (1.5 H, 24×50 mm, Carl Roth) with CultureWell™ Reusable Gaskets (CW-50R-1.0, 50-3 mm diameter×1 mm depth) that had been washed by three consecutive rinses of water and isopropanol, prior to drying under a stream of pressurized air. Gaskets were assembled on microscope coverslips and placed on the stage of a TwoMP mass photometer (MP, Refeyn Ltd, Oxford, UK) with immersion oil. Measurements were carried out in 1× phosphate-buffered saline (PBS, 10 mM Na₂HPO₄, 1.8 mM KH₂PO₄, 137 mM NaCl, 2.7 mM KCl (pH 7.4)). To this end, 18 μL 1×PBS was used to focus the MP before 2 μL sample (1 μM protein) was added, rapidly mixed, and measured. Shortly before measuring, samples were prepared by diluting purified protein to 1 μM monomer concentration in buffer (50 mM HEPES, pH 7.8, 150 mM KCl), as determined by absorption at 280 nm. Data was acquired for 60 s at 100 frames per second using AcquireMP (Refeyn Ltd, Oxford, UK). MP contrast was calibrated to molecular masses using 50 nM of in-house purified protein mixture containing citrate-synthase complexes of known molecular masses ranging from 86 to 430 kDa. MP datasets were processed and analyzed using DiscoverMP (Refeyn Ltd, Oxford, UK). Details of MP image analysis have been described previously (Sonn-Segev, et al., 2020, Nat Commun 11, 1772).

[2] = target: T2, GCC M5_L100N (M. extorquens) β-subunit L100N, Y143H, D407I, I450V, W502R mutations (Methylorubrum extorquens)
T2 construct: Engineered β-subunit, forms the β6 core; Cryo-EM structure PDB 8PN8; also called S100N; GCC M5 S100N
T2 chain: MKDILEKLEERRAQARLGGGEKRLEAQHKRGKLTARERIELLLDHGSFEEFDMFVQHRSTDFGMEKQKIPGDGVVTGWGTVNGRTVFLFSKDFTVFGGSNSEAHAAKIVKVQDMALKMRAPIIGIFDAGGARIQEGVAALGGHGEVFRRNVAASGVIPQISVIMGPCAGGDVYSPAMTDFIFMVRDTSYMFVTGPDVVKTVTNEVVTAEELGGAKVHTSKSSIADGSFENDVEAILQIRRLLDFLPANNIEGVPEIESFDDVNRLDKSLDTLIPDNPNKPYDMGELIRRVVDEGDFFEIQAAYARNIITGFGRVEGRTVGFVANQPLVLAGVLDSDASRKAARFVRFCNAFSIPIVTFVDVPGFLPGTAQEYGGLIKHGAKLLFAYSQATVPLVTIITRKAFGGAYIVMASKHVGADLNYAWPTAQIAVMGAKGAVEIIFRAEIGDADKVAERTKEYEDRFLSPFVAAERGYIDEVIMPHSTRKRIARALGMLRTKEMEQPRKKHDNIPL
Method: as §1

[3] = target: T3, PCC WT (M. extorquens) β-subunit (Methylorubrum extorquens)
T3 construct: Wild-type β-subunit of propionyl-CoA carboxylase, forms the β6 core; also called PCC wildtype; PCC from M. extorquens
T3 chain: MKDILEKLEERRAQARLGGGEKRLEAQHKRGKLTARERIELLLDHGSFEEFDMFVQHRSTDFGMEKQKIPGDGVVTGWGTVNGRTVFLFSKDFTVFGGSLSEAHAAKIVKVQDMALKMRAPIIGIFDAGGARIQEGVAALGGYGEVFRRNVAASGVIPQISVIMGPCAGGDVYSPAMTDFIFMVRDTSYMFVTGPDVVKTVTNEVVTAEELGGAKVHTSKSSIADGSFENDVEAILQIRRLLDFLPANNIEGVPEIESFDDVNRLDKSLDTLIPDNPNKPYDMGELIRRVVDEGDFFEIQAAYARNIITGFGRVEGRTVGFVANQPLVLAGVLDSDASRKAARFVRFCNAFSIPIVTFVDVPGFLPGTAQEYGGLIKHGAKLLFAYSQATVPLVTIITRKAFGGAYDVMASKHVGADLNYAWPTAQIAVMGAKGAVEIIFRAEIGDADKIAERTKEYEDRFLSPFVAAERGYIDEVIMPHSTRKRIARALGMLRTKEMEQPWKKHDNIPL
Method: as §1

binding result [1]: binds
binding result [2]: binds
binding result [3]: binds
B1: PCC WT (M. extorquens) α-subunit (enzyme)
chain: MFDKILIANRGEIACRIIKTAQKMGIKTVAVYSDADRDAVHVAMADEAVHIGPAPAAQSYLLIEKIIDACKQTGAQAVHPGYGFLSERESFPKALAEAGIVFIGPNPGAIAAMGDKIESKKAAAAAEVSTVPGFLGVIESPEHAVTIADEIGYPVMIKASAGGGGKGMRIAESADEVAEGFARAKSEASSSFGDDRVFVEKFITDPRHIEIQVIGDKHGNVIYLGERECSIQRRNQKVIEEAPSPLLDEETRRKMGEQAVALAKAVNYDSAGTVEFVAGQDKSFYFLEMNTRLQVEHPVTEMITGLDLVELMIRVAAGEKLPLSQDQVKLDGWAVESRVYAEDPTRNFLPSIGRLTTYQPPEEGPLGGAIVRNDTGVEEGGEIAIHYDPMIAKLVTWAPTRLEAIEAQATALDAFAIEGIRHNIPFLATLMAHPRWRDGRLSTGFIKEEFPEGFIAPEPEGPVAHRLAAVAAAIDHKLNIRKRGISGQMRDPSLLTFQRERVVVLSGQRFNVTVDPDGDDLLVTFDDGTTAPVRSAWRPGAPVWSGTVGDQSVAIQVRPLLNGVFLQHAGAAAEARVFTRREAELADLMPVKENAGSGKQLLCPMPGLVKQIMVSEGQEVKNGEPLAIVEAMKMENVLRAERDGTISKIAAKEGDSLAVDAVILEFA
modifications: biotin covalently bound to a lysine (position not given)
notes: Co-expressed with the β-subunit and BirA in E. coli BL21-birA and purified by His-Trap; also called α-subunit of the PCC; GCC M5 α-subunit
